{
  "source": "patent EP4711453A1",
  "about": "“PHENYLALANINE LYASE MUTANT, AND CONJUGATE THEREOF OR PHARMACEUTICALLY ACCEPTABLE SALT THEREOF” (Peg-Bio Biopharm Co., Ltd. (Chongqing), priority 2023, dated 2024)",
  "key": {"serum phenylalanine": {"tested_on": "serum phenylalanine", "test": "Serum phenylalanine concentration after multiple administrations in phenylketonuria model mice (LC-MS/MS)", "format": "in vivo", "details": "Pah^enu mice", "source_text": "Phenylalanine hydroxylase (PAH) was central to phenylalanine metabolism in animals, catalyzing the conversion of phenylalanine to tyrosine. Deficiency of this gene underlies phenylketonuria. […] Therefore, the homozygous mouse carrying the missense mutation F263S can be used as an animal model for phenylketonuria (referred to as the Pah^enu mouse or model mouse) in this drug study.\n(§1) To evaluate the polyethylene glycol conjugate PL54 of site-saturation modified phenylalanine lyase mutant, […] Pah^enu mice were allocated into five groups (four experimental groups and one control group), with six mice in each group. PL54-5 (average degree of modification 13.60, specific enzyme activity 1.27 U/mg) from Table 3 of Example 2 was administered to phenylketonuria animal model mice at low, medium, and high doses of 0.5 mg/kg, 1.5 mg/kg, and 4.5 mg/kg, respectively, via subcutaneous injection. The high-dose group of 4.5 mg/kg also included a group receiving intramuscular administration, once per week. The control group was administered phosphate buffered saline as a placebo subcutaneously once weekly. Blood samples were collected from mice in each group at 1 h before administration and at 2, 5, and 7 days after administration for each group. The content of PL54-5 in serum, changes in phenylalanine concentration (Reference: Judy Peat et al., Determination of Phenylalanine and Tyrosine by High Performance Liquid Chromatography-Tandem Mass Spectrometry), and Anti-PEG-IgM/IgG antibody titers (see Example 5 for details) were detected by sandwich ELISA (see Example 5 for details), and their pharmacokinetics were evaluated, see FIG. 6 to FIG.9 for details."}, "anti-PEG antibodies": {"tested_on": "anti-PEG antibodies", "set-up": "species or system Pah^enu mice", "details": "mouse, in vivo", "protocol": "as §1"}, "[1]": {"set-up": "species or system Pah^enu mice", "details": "mouse, in vivo", "protocol": "as §1"}, "anti-PAL-IgG": {"tested_on": "anti-PAL-IgG", "test": "Immunogenicity of conjugates with different PEG molecular weights in rats: anti-PAL-IgG (ELISA)", "format": "in vivo", "details": "for anti-PAL-IgG, x (average OD value of antibody detection by ELISA) / anti-PAL-IgG, Positive rate: 0.75 mg/kg s.c. once weekly", "protocol": "Polyethylene glycol conjugates of phenylalanine lyase or its mutant with different structures and modifier molecular weights, namely PL20, PL24, and PL54, were prepared according to the method described in Example 2. The phenylalanine lyase in PL20 has the amino acid sequence as set forth in SEQ ID NO: 1, and the polyethylene glycol has a molecular weight of 20K. The phenylalanine lyase in PL24 has the amino acid sequence as set forth in SEQ ID NO: 6, and the polyethylene glycol has a molecular weight of 2K. The phenylalanine lyase in PL54 has the amino acid sequence as set forth in SEQ ID NO: 6, and the polyethylene glycol has a molecular weight of 5K.\nTo evaluate the immunogenicity of PL20, PL24, and PL54 in animals, normal rats were selected and divided into 3 groups, with 6 rats per group (3 males and 3 females). Subcutaneous administration was performed at a dose of 0.75 mg/kg with PL54 (average degree of modification 13.6, 1.27 U/mg), PL24 (average degree of modification 13.3, 0.96 U/mg), and PL20 (average degree of modification 7.6, 1.14 U/mg) for the three groups, respectively. Administration was repeated 7 times, once weekly. Blood samples were collected 7 days after each administration. Serum anti-PEG-IgG and anti-PAL4 protein antibodies were detected by ELISA (refer to Example 5 for details). In the table, \"1-7\" indicated 7 days after the first administration, and \"7-7\" indicated 7 days after the seventh administration. x represented the average OD value of antibody detection by ELISA, and the positive rate represented the ratio of the number of antibody-positive animals to the total number of animals in the group. Table 6: Antibody titers in rats after multiple administrations of polyethylene glycol conjugates with different molecular weights"}, "[2]": {"tested_on": "anti-PAL protein antibodies", "test": "Anti-PAL protein antibody in rat serum after multiple administrations (bridging ELISA)", "format": "in vivo", "details": "SD rats", "protocol": "To evaluate PEGylated conjugates of phenylalanine lyase or its mutants with different average degrees of modification, the inventors divided SD rats into four groups (n=6 per group). The animals were subcutaneously injected with PL54-1 and PL54-5 (average degrees of modification: 10.54 and 13.60, respectively) and PL5-1 and PL5-5 (average degrees of modification: 8.2 and 10.53, respectively) from Table 3 of Example 2 at a dose of 2 mg/kg once a week for four doses. Blood samples were collected on D1 (Day 1), D3 (Day 3), and D7 (Day 7) after the first dose, as well as on D3 and D7 following each subsequent dose. The concentrations of PL54-1, PL54-5, PL5-1, and PL5-5 in rat serum were determined by sandwich ELISA to assess plasma drug concentration maintenance after multiple administrations. Anti-PEG-IgM/IgG antibody titers in rat serum from each group were measured using indirect ELISA (coating with PEG-BSA, adding positive rat anti-PEG Abs/test serum samples, followed by HRP-conjugated anti-rat IgM/IgG detection), while bridging ELISA (coating with PAL protein, adding positive sheep anti-PAL Abs/acidified serum samples, followed by biotin-labeled PAL detection) was also performed. The plasma drug concentration results are shown in FIG. 4, and the antibody detection results after administration were shown in FIG. 4 and FIG. 5."}, "[3]": {"test": "Subcutaneous/intravenous pharmacokinetics in dogs (double-antibody sandwich ELISA)", "format": "in vivo", "details": "beagle dogs; for dogs with accelerated blood clearance: 2 mg/kg once weekly", "protocol": "[…] Six beagle dogs were equally divided into two groups: the subcutaneous administration group and the intravenous administration group. […] Blood samples were collected from both groups on days 1, 3, 5, and 7 after the first administration, and on Day 1 and Day 3 after each subsequent administration. Serum plasma drug concentrations were measured using the double-antibody sandwich ELISA method (see Example 5 for details)."}},
  "data": [
    {"molecule": "PL54-5: polyethylene glycol conjugate of PAL4 (SEQ ID NO: 6) with PEG-SPA-5K, molar ratio 1:16, average degree of modification 13.60 (conjugate, PEG-SPA-5K conjugate, ~13.6 PEG per molecule) MKTLSQAQSKTSSQQFSFTGNSSANVIIGNQKLTINDVARVARNGTLVSLTNNTDILQGIQASCDYINNAVKSGEPIYGVTSGFGGMANVAISREQASELQTNLVWFLKTGAGNKLPLADVRAAMLLRANSHMRGASGIRLELIKRMEIFLNAGVTPYVYEFGSIGASGDLVPLSYITGSLIGLDPSFKVDFNGKEMDAPTALRQLNLSPLTLLPKEGLAMMNGTSVMTGIAANCVYDTKILTAIAMGVHALDIQALNGTNQSFHPFIHNSKPHPGQLWAADQMISLLANSQLVRDELDGKHDYRDHELIQDRYSLRCLPQYLGPIVDGISQIAKQIEIEINSVTDNPLIDVDNQASYHGGNFLGQYVGMGMDHLRYYIGLLAKHLDVQIALLASPEFSNGLPPSLLGNRERKVNMGLKGLQICGNSIMPLLTFYGNSIADRFPTHAEQFNQNINSQGYTSATLARKSVDIFQNYVAIALMFGVQAVDLRTYKKTGHYDARASLSPATERLYSAVRHVVGQKPTSDRPYIWNDNEQGLDEHIAKISADIAAGGVIVQAVQDILPSLH", "values": [
      {"measurement": "efficacy after intramuscular administration", "setting": "serum phenylalanine; 4.5 mg/kg intramuscular once per week", "result": "consistent with that after subcutaneous administration"},
      {"measurement": "serum phenylalanine", "setting": "serum phenylalanine; high dose 4.5 mg/kg s.c., within 2 days after the first administration", "result": "below the method detection limit"},
      {"measurement": "reduction of serum phenylalanine levels", "setting": "serum phenylalanine; high-dose group 4.5 mg/kg s.c., after five repeated administrations, within 2 days", "result": "more than 90%"},
      {"measurement": "decrease of serum phenylalanine levels", "setting": "serum phenylalanine; medium-dose group 1.5 mg/kg s.c., after five repeated administrations", "result": "approximately 75%"},
      {"measurement": "S/N values of IgG and IgM antibodies (anti-PEG)", "setting": "anti-PEG antibodies", "result": "decreased with increasing number of administrations"},
      {"measurement": "anti-PEG antibodies", "setting": "anti-PEG antibodies", "result": "positive"},
      {"measurement": "plasma drug concentration in relation to the administration dose", "setting": "[1]", "result": "directly proportional to the administration dose"},
      {"measurement": "plasma drug concentration, intramuscular compared with subcutaneous", "setting": "[1]; 4.5 mg/kg", "result": "higher than that in the subcutaneous administration group"},
      {"measurement": "anti-PAL-IgG, x (average OD value of antibody detection by ELISA)", "setting": "anti-PAL-IgG; 1-7 (7 days after the first administration)", "result": "x=0.107"},
      {"measurement": "anti-PAL-IgG, Positive rate", "setting": "anti-PAL-IgG; 1-7, antibody-positive animals / animals in the group", "result": "Positive rate: 2/6"},
      {"measurement": "anti-PAL-IgG, x (average OD value of antibody detection by ELISA)", "setting": "anti-PAL-IgG; 7-7 (7 days after the seventh administration)", "result": "x=0.089"},
      {"measurement": "anti-PAL-IgG, Positive rate", "setting": "anti-PAL-IgG; 7-7, antibody-positive animals / animals in the group", "result": "Positive rate: 0/6"},
      {"measurement": "anti-PAL4 protein antibody", "setting": "anti-PAL-IgG; 7 days after seven doses", "result": "No anti-PAL4 protein antibody was detected"},
      {"measurement": "anti-PAL protein antibodies, positive rats", "setting": "[2]; serum dilution 1:10, 7 days after the fourth dose", "result": "1/6"},
      {"measurement": "anti-PAL protein antibodies", "setting": "[2]; serum dilution 1:10, after the first dose", "result": "very weak positivity"},
      {"measurement": "bioavailability of subcutaneous administration relative to intravenous administration", "setting": "[3]; 2 mg/kg", "result": 64.4, "unit": "%"},
      {"measurement": "dogs with accelerated blood clearance", "setting": "[3]; after multiple intravenous administrations", "result": "2/3"},
      {"measurement": "dogs with accelerated blood clearance", "setting": "[3]; after multiple subcutaneous administrations", "result": "1/3"},
      {"measurement": "peak time of blood drug concentration", "setting": "[3]; 2 mg/kg, single intravenous administration", "result": 1, "unit": "days"},
      {"measurement": "peak time of blood drug concentration", "setting": "[3]; 2 mg/kg, single subcutaneous administration", "result": 3, "unit": "days"}
    ]}
  ]
}
